Legend:
TcAS-A [1] = target: T1, TcAS-A (Trypanosoma cruzi, UniProt Q4CRM4); assay: ninhydrin asparagine formation assay, Km app method; type: biochemical
T1 construct: gene Tc00.1047053503625.10; full ORF in pET28a(+), 6-His-tagged, expressed in E. coli BL21DE3, Ni purified; predicted dimer (homology model)
T1 sequence (Q4CRM4 1-348): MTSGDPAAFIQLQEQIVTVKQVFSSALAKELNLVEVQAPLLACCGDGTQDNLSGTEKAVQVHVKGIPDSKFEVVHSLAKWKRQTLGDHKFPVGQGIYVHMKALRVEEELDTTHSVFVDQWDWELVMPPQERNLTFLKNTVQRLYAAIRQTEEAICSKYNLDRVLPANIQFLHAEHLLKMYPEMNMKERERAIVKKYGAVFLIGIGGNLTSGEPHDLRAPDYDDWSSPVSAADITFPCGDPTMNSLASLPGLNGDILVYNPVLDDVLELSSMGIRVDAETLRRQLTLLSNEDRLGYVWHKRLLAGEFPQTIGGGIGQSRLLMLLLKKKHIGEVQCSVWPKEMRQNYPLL

TcAS-A [2] = target: T1, TcAS-A; assay: ninhydrin asparagine formation assay; type: biochemical
TbAS-A [3] = target: T2, TbAS-A (Trypanosoma brucei, UniProt Q57WT9); assay: ninhydrin asparagine formation assay, Km app method; type: biochemical
T2 construct: gene Tb07.27M11.260; full ORF in pET28a(+), 6-His-tagged, expressed in E. coli BL21DE3, Ni purified; predicted dimer (homology model)
T2 sequence (Q57WT9 1-351): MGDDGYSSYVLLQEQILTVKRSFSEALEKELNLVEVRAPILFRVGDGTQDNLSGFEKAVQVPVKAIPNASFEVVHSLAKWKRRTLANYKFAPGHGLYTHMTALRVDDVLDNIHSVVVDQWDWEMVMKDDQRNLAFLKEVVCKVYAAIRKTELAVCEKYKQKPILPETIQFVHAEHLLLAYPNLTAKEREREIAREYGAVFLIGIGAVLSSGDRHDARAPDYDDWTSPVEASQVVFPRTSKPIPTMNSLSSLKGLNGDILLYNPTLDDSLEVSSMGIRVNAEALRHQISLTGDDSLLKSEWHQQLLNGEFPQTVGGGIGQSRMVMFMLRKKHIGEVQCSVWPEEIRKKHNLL

TbAS-A [4] = target: T2, TbAS-A; assay: ninhydrin asparagine formation assay; type: biochemical
purified protein = substrate: N; assay: purified protein; conditions: excess aspartate (>20 mM) and ATP (>10 mM), ammonia in solution as nitrogen donor, 8.4 mM Mg2+, 85 mM Tris-HCl, 37 °C
[5] = substrate: NC(=O)CC[C@H](N)C(=O)O; assay: ninhydrin asparagine formation assay; type: biochemical, Trypanosoma brucei; conditions: excess ATP and aspartate, glutamine as nitrogen donor, 8.4 mM Mg2+, 85 mM Tris-HCl, 37 °C
Description: (§1) ninhydrin asparagine formation assay on TbAS-A

[6] = substrate: N[C@@H](CC(=O)O)C(=O)O; assay: ninhydrin asparagine formation assay; type: biochemical, Trypanosoma brucei; conditions: excess ATP (>10 mM) and ammonia (>50 mM), 8.4 mM Mg2+, 85 mM Tris-HCl, 37 °C
Description: as §1

[7] = substrate: Nc1ncnc2c1ncn2[C@@H]1O[C@H](COP(=O)(O)OP(=O)(O)OP(=O)(O)O)[C@@H](O)[C@H]1O; assay: ninhydrin asparagine formation assay; type: biochemical, Trypanosoma brucei; conditions: excess aspartate (>20 mM) and ammonia (>50 mM), 8.4 mM Mg2+, 85 mM Tris-HCl, 37 °C
Description: as §1

[8] = substrate: NC(=O)CC[C@H](N)C(=O)O; assay: ninhydrin asparagine formation assay; type: biochemical, Trypanosoma cruzi; conditions: excess ATP and aspartate, glutamine as nitrogen donor, 8.4 mM Mg2+, 85 mM Tris-HCl, 37 °C
Description: (§2) ninhydrin asparagine formation assay on TcAS-A

[9] = substrate: N[C@@H](CC(=O)O)C(=O)O; assay: ninhydrin asparagine formation assay; type: biochemical, Trypanosoma cruzi; conditions: excess ATP (>10 mM) and ammonia (>50 mM), 8.4 mM Mg2+, 85 mM Tris-HCl, 37 °C
Description: as §2

[10] = substrate: Nc1ncnc2c1ncn2[C@@H]1O[C@H](COP(=O)(O)OP(=O)(O)OP(=O)(O)O)[C@@H](O)[C@H]1O; assay: ninhydrin asparagine formation assay; type: biochemical, Trypanosoma cruzi; conditions: excess aspartate (>20 mM) and ammonia (>50 mM), 8.4 mM Mg2+, 85 mM Tris-HCl, 37 °C
Description: as §2

In the case of N[C@@H](CSS(=O)(=O)O)C(=O)O [L-cysteine-S-sulfate], the Ki (TcAS-A [1]) is reported as 129 µM, the IC50 (TcAS-A [2]) is reported as 100 µM and the Ki (TbAS-A [3]) is reported as 137 µM. The IC50 (TbAS-A [4]) was 126 µM.

B1: TbAS-A (Trypanosoma brucei brucei TREU927) (protein)
chain: MGDDGYSSYVLLQEQILTVKRSFSEALEKELNLVEVRAPILFRVGDGTQDNLSGFEKAVQVPVKAIPNASFEVVHSLAKWKRRTLANYKFAPGHGLYTHMTALRVDDVLDNIHSVVVDQWDWEMVMKDDQRNLAFLKEVVCKVYAAIRKTELAVCEKYKQKPILPETIQFVHAEHLLLAYPNLTAKEREREIAREYGAVFLIGIGAVLSSGDRHDARAPDYDDWTSPVEASQVVFPRTSKPIPTMNSLSSLKGLNGDILLYNPTLDDSLEVSSMGIRVNAEALRHQISLTGDDSLLKSEWHQQLLNGEFPQTVGGGIGQSRMVMFMLRKKHIGEVQCSVWPEEIRKKHNLL
notes: full ORF in pET28a(+), 6-His-tagged, expressed in E. coli BL21DE3, Ni purified; predicted dimer (homology model)
Molecule B1 has a Km (purified protein) of 5.55 ± 0.41 mM, a kcat (purified protein) of 5.69 s⁻¹ and a kcat/Km (purified protein) of 1030 M⁻¹ s⁻¹. It also gave a Km [5] of 8.20 ± 1.70 mM, a kcat [5] of 5.58 ± 0.48 s⁻¹ and a kcat/Km [5] of 680 M⁻¹ s⁻¹. It also gave a Km [6] of 5.39 ± 0.31 mM, a kcat [6] of 5.31 ± 0.11 s⁻¹ and a kcat/Km [6] of 985 M⁻¹ s⁻¹. The Km [7] was 1.80 ± 0.32 mM, the kcat [7] was 6.22 ± 0.38 s⁻¹ and the kcat/Km [7] was 3460 M⁻¹ s⁻¹.

B2: TcAS-A (Trypanosoma cruzi strain CL Brener) (protein)
chain: MTSGDPAAFIQLQEQIVTVKQVFSSALAKELNLVEVQAPLLACCGDGTQDNLSGTEKAVQVHVKGIPDSKFEVVHSLAKWKRQTLGDHKFPVGQGIYVHMKALRVEEELDTTHSVFVDQWDWELVMPPQERNLTFLKNTVQRLYAAIRQTEEAICSKYNLDRVLPANIQFLHAEHLLKMYPEMNMKERERAIVKKYGAVFLIGIGGNLTSGEPHDLRAPDYDDWSSPVSAADITFPCGDPTMNSLASLPGLNGDILVYNPVLDDVLELSSMGIRVDAETLRRQLTLLSNEDRLGYVWHKRLLAGEFPQTIGGGIGQSRLLMLLLKKKHIGEVQCSVWPKEMRQNYPLL
notes: as for B1
Work on B2 yielded a Km (purified protein) of 7.75 ± 1.55 mM, a kcat (purified protein) of 2.45 s⁻¹ and a kcat/Km (purified protein) of 316 M⁻¹ s⁻¹. The Km [8] was 15.33 ± 3.66 mM, the kcat [8] was 3.38 ± 0.41 s⁻¹ and the kcat/Km [8] was 220 M⁻¹ s⁻¹. It also gave a Km [9] of 6.45 ± 2.05 mM, a kcat [9] of 2.41 ± 0.32 s⁻¹ and a kcat/Km [9] of 374 M⁻¹ s⁻¹. It also gave a Km [10] of 0.72 ± 0.01 mM, a kcat [10] of 3.45 ± 0.02 s⁻¹ and a kcat/Km [10] of 4790 M⁻¹ s⁻¹.
